Tests used:
[1] = biological target: T1, human DLL3 (hDLL3) expressed on tumor cells (human, UniProt Q9NYJ7 27-618); test: cell-based or functional assay
T1 sequence (looked up): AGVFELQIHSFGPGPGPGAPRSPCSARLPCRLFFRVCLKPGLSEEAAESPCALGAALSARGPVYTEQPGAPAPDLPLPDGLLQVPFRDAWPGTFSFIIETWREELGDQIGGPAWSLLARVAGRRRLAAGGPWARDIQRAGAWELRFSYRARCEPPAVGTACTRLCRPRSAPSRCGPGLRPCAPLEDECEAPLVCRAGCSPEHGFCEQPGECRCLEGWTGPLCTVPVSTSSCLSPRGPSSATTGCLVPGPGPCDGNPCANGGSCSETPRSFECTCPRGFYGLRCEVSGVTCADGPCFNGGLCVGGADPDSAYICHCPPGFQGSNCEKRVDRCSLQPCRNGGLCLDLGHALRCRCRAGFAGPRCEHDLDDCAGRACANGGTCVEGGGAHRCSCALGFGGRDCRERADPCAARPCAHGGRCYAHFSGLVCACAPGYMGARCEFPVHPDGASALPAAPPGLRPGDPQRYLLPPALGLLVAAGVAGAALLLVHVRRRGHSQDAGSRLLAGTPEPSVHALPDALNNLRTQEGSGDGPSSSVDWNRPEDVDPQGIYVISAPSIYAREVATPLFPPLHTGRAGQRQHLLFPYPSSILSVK

[2] = biological target: T1, human DLL3 (hDLL3) expressed on tumor …; test: flow cytometry (FACS) on SHP-77 cells expressing hDLL3
[3] = biological target: T2, human CD3 (hCD3) naturally expressed on Jurkat cells (human, UniProt P07766 23-207); test: flow cytometry (FACS) on Jurkat cells naturally expressing hCD3
T2 construct: whole, on cells; on the cells it is part of the whole TCR/CD3 complex; also called Jurkat cell line

[4] = biological target: human CD3 (purchased from Acro, Cat. No. CDD-H52W1) (human, UniProt P07766 23-126); test: SPR (Biacore 8K), CD3 immobilised directly on CM5, bispecific as analyte, 1:1 Langmuir fit
[5] = biological target: T3, cynomolgus CD3 (purchased from Acro, Cat. No. CDD-C52W4) (cynomolgus, UniProt Q95LI5 22-117); test: as above
T3 sequence (looked up): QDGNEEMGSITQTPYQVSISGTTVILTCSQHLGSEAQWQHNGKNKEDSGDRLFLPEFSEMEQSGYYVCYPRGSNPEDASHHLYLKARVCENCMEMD

[6] = biological target: T4, human DLL3 (purchased from Kaixia, Cat. No DLL-HM103) (human, UniProt Q9NYJ7 27-492, limits assumed); test: SPR (Biacore 8K), bispecific captured by anti-human Fc on CM5, DLL3 as analyte, 1:1 Langmuir fit
T4 construct: Bought recombinant protein; also called human DLL3 protein
T4 sequence (looked up): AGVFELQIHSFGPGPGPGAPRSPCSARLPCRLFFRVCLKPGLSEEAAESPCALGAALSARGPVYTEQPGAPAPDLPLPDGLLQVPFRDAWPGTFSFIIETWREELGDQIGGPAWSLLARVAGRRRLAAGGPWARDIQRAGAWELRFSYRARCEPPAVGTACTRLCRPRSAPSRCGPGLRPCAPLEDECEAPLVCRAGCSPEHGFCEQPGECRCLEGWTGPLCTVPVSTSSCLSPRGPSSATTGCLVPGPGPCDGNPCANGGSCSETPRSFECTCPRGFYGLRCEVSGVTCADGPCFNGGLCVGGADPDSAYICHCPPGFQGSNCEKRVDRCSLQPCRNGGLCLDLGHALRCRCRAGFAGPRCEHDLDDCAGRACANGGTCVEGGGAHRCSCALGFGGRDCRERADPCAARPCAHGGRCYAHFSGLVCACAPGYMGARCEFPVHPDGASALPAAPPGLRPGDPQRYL

[7] = biological target: T5, cynomolgus DLL3 (purchased from Kaixia, Cat. No. DLL-RM103) (cynomolgus, UniProt A0A2K5WSR1 27-490); test: as above
T5 construct: Bought recombinant protein
T5 sequence: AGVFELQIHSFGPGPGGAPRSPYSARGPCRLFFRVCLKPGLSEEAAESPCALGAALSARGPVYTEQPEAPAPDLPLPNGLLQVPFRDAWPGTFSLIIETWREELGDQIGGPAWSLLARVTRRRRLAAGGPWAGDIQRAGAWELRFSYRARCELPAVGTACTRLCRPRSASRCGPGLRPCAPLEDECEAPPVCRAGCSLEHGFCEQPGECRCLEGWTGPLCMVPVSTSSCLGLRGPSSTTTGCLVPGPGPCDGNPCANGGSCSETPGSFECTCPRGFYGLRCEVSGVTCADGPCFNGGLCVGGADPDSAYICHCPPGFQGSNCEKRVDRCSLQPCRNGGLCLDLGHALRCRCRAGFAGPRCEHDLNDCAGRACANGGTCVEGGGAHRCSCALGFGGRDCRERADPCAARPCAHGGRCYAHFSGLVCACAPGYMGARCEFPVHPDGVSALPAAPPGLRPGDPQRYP

Sequence of human CD3 (purchased from Acro, Cat. No. CDD-H52W1) (P07766 23-126): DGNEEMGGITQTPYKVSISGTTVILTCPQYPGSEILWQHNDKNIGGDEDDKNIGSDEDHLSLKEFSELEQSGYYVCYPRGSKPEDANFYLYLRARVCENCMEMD
T2 sequence (P07766 23-207): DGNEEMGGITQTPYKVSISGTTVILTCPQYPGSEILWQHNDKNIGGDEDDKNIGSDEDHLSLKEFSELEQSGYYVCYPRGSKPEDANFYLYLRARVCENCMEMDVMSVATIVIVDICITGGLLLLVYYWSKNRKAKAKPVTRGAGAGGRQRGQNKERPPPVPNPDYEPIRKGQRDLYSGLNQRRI

B1: Bispecific antibody 2 (bispecific antibody, IgG1)
heavy: not shown
chain: DKTHTCPPCPAPEAAGGPSVFLFPPKPKDTLMISRTPEVTCVVVDVSHEDPEVKFNWYVDGVEVHNAKTKPREEQYNSTYRVVSVLTVLHQDWLNGKEYKCKVSNKALPAPIEKTISKAKGQPREPQVCTLPPSRDELTKNQVSLSCAVKGFYPSDIAVEWESNGQPENNYKTTPPVLDSDGSFFLVSKLTVDKSRWQQGNVFSCSVMHEALHNRYTQKSLSLSPGK
light: EIVLTQSPATLSLSPGERATLSCRASQSINNNLHWYQQKPGQAPRLLIKYVSQSISGIPARFSGSGSGTDFTLTISSLEPEDFAVYYCQQTNAWPLTFGGGTKLEIKRTVAAPSVFIFPPSDEQLKSGTASVVCLLNNFYPREAKVQWKVDNALQSGNSQESVTEQDSKDSTYSLSSTLTLSKADYEKHKVYACEVTHQGLSSPVTKSFNRGEC
notes: Knob heavy chain: DLL3 VH-CH1-(G4S)3-CD3 scFv-EPKSS-IgG1 Fc (S354C, T366W, L234A/L235A); Hole chain: Fc only (Y349C, T366S, L368A, Y407V, H435R); Light chain: that of H2-39E2D11-NA; also called anti-CD3-DLL3 bispecific antibody
TDCC EC50 (nM), NCI-H82 cell line [1]: 80.2 nM | TDCC EC50 (nM), SHP-77 cell line [1]: 136 nM | EC50 [2]: 3.11 nM | EC50 [3]: 57.9 nM | Kd [4]: 9.09 nM | koff [4]: 0.00414 s⁻¹ | Kd [5]: 11.1 nM | koff [5]: 0.00405 s⁻¹ | Kd [6]: 0.647 nM | koff [6]: 7.92e-05 s⁻¹ | kon [6]: 122000 M⁻¹ s⁻¹ | Kd [7]: 0.887 nM | koff [7]: 8.6e-05 s⁻¹ | kon [7]: 97000 M⁻¹ s⁻¹

From patent US20250136680A1 (SHANGHAI QILU PHARMACEUTICAL RESEARCH AND DEVELOPMENT CENTRE, published 2025)
